Results: the supplement of paper PMC10724198
± gives the standard deviation of the averaged measurements.

test system: Saccharomyces cerevisiae; experiment: protein stability index of tFT-peptide fusion (C-terminal peptide) (PSI (0-1 scale)); higher = more stable (slower turnover); conditions: genetic background: wild type; temperature: 30 C
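Also: PSI is a weighted mean of sequencing reads over stability bins, variants kept only with over 10 reads, mCherry proximal and sfGFP distal, peptide attached via GGGS linker.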

Sequence	protein stability index
VGSDICLGLCLL	0.871 ± 0.02
VGSKGCDGCNRA	0.655 ± 0.047
VGTAVVDRHGVR	0.603 ± 0.045
VGTVREVYCQGG	0.678 ± 0.014
VGVFRCLPGQVG	0.677 ± 0.057
VGVGDGLIRRSS	0.7338 ± 0.004
VGVLCWLFLGVG	0.501 ± 0.008
VGVWDGCLLGLG	0.695 ± 0.028
VGWAVNGSMVVG	0.662 ± 0.021
VGWCPLVGGSGQ	0.753 ± 0.039
VGYGEVSGGGRM	0.732 ± 0.026
VHFSSSCDYLIV	0.653 ± 0.081
VHGGKREGGGEG	0.667 ± 0.039
VHRFPPAPFCTP	0.734 ± 0.047
VHRPFDGFSRAG	0.662 ± 0.011
VHSMSRTFARPV	0.683 ± 0.051
VIASPALLLPLF	0.642 ± 0.062
VIDFAELGTVAH	0.7301 ± 0.005
VIDTGAGSILEI	0.7 ± 0.042
VIESRNEEGGRV	0.727 ± 0.022
VIFCFCSRSCFL	0.643 ± 0.037
VIGAGTGCVVVG	0.72 ± 0.013
VIMAEVLCVSNL	0.508 ± 0.0071

Sequence	protein stability index
VIPREPSEPHTA	0.639 ± 0.021
VIVKNINKNTQI	0.717 ± 0.038
VKGKLGSGSYIH	0.644 ± 0.022
VKQFLICKNGRS	0.728 ± 0.12
VKSFRFPHPVWN	0.682 ± 0.011
VKWAIWGGMEWR	0.667 ± 0.07
VKWFRESRMVGA	0.65 ± 0.027
VLADIGSAGIGR	0.711 ± 0.014
VLCRSLAGCCFV	0.709 ± 0.012
VLFEARFSLRQS	0.6768 ± 0.0044
VLFPLPFPCVSF	0.681 ± 0.06
VLFPPGFPPGLL	0.817 ± 0.04
VLFPPLCLSFCF	0.498 ± 0.044
VLGASFTATYFQ	0.749 ± 0.077
VLGCSVIADSCR	0.637 ± 0.053
VLGDSASFWSCP	0.765 ± 0.15
VLGGGPSIRGLM	0.655 ± 0.027
VLGVGSFCLGVV	0.622 ± 0.018
VLGWRLLPTAGI	0.703 ± 0.062
VLILDVSFPRCD	0.766 ± 0.18
VLLLLYGMFRGR	0.59 ± 0.0094
VLLPEPCALRFT	0.551 ± 0.029
VLLRHRPKYACR	0.645 ± 0.022

Sequence	protein stability index
VLLRRRSIWPLG	0.72 ± 0.0063
VLLRVSEQVSRV	0.676 ± 0.1
VLRFATIKRMYP	0.661 ± 0.018
VLRPFTPPSSRF	0.723 ± 0.047
VLSISINRGVRI	0.664 ± 0.0039
VLSRVSMSLGSP	0.767 ± 0.16
VLTGLLFRRPRS	0.604 ± 0.0062
VLVEWQTCRTRK	0.656 ± 0.097
VLVGRAGIVFLG	0.573 ± 0.04
VLVVRERGAVDG	0.697 ± 0.1
VLWVLDAFCFGG	0.643 ± 0.0084
VMGGWGCGVLRG	0.731 ± 0.021
VMNHYCRFPVST	0.598 ± 0.023
VMRRYVFPSGFF	0.677 ± 0.023
VMWVGGAAGPVV	0.663 ± 0.037
VNELYDNETTYV	0.734 ± 0.035
VPAPLPRTSPPS	0.673 ± 0.053
VPAYLVAARQYY	0.655 ± 0.012
VPFRLFSSYLSG	0.641 ± 0.037
VPGYLLIDFWWV	0.5707 ± 0.001
VPHLPATPPAPP	0.646 ± 0.037
VPLTKHENNFNE	0.709 ± 0.018
VPPASTSPGAFP	0.6889 ± 0.003

Sequence	protein stability index
VPPLVPLHPPPP	0.709 ± 0.047
VPPPRYLPAFPA	0.694 ± 0.0078
VPPSCPRPPTAP	0.676 ± 0.064
VPQREWGGVRLG	0.675 ± 0.017
VPRMLSTPKAQP	0.723 ± 0.01
VPSRRLPLPPAS	0.695 ± 0.0086
VPVGSLLVGSVT	0.528 ± 0.012
VQASESGLRAGV	0.686 ± 0.0092
VQASFLPGGSVR	0.7062 ± 0.0039
VQGFYPVSAEGG	0.674 ± 0.022
VQVLLMFTWERE	0.511 ± 0.016
VRCAVVTMDLTL	0.691 ± 0.05
VRCCFGGRGAIA	0.6461 ± 0.0016
VRDVIGWGEEEY	0.708 ± 0.017
VREVTIGGGLGE	0.707 ± 0.0087
VRGTGRQLNKSM	0.662 ± 0.054
VRGVCLWGGVVG	0.641 ± 0.099
VRLELIRSKLSR	0.701 ± 0.022
VRLLGVGGGFTC	0.701 ± 0.038
VRLRLGLLAGWS	0.633 ± 0.012
VRLWLTLQQVDF	0.686 ± 0.085
VRMKAAIGNGAE	0.6686 ± 0.0037
VRNPPPLTRTRP	0.687 ± 0.0097

Sequence	protein stability index
VRRFRYCLGFFR	0.663 ± 0.059
VRRGHEGCGLRY	0.717 ± 0.025
VRRGRQHLRYGR	0.708 ± 0.045
VRRSGMNIVVLP	0.63872 ± 0.00027
VRRSNKTIKRKK	0.746 ± 0.1
VRRVWYGSFSRL	0.81 ± 0.012
VRSFSFSALLAV	0.58 ± 0.024
VRSVSCPCCAHF	0.7058 ± 0.0056
VRVGVGGVSEFE	0.67062 ± 0.00015
VRVRGDPLVCPL	0.592 ± 0.0096
VRVSGVSVVRFW	0.667 ± 0.012
VRWGVGVGVGWD	0.682 ± 0.057
VSAPRLRVSCNP	0.696 ± 0.014
VSARRTLRFSFE	0.685 ± 0.016
VSCGGSARRASP	0.704 ± 0.0078
VSCLPFLDLMSW	0.701 ± 0.012
VSEKICNCLGKT	0.657 ± 0.088
VSGAAFMSSAFW	0.753 ± 0.045
VSGLKYSVLVGG	0.555 ± 0.015
VSLISCGGVYAG	0.688 ± 0.015
VSLVDRFVLAIV	0.5619 ± 0.0011
VSPGPSPPPPPR	0.622 ± 0.072
VSPLSHPPSPAP	0.702 ± 0.021

Sequence	protein stability index
VSRPRSLLVPNF	0.67 ± 0.07
VSSAGRPRGFLP	0.671 ± 0.01
VSSELLFLVVRF	0.543 ± 0.0089
VSTVFGCDICST	0.701 ± 0.034
VSVGEDGNRPTC	0.645 ± 0.071
VSVGGVWGQCVA	0.6618 ± 0.0047
VSVGLGRCSIFW	0.7217 ± 0.0048
VTAIVLSVLSGC	0.556 ± 0.022
VTEGGGGGKGRG	0.6917 ± 0.0064
VTGPLSSDSSFT	0.672 ± 0.017
VTGTQGELGSFV	0.689 ± 0.11
VTIDETMSKGIN	0.698 ± 0.045
VTSRSFYRVSPL	0.68 ± 0.14
VTSTVPRFPQFT	0.667 ± 0.014
VTTKMQVAGSRK	0.6377 ± 0.00065
VVAGCLWGEYAT	0.702 ± 0.17
VVAPETTPFSPR	0.7193 ± 0.007
VVCLGGVVLPRV	0.65788 ± 0.00012
VVEPEVCLPSMR	0.6942 ± 0.0032
VVFFPVLSYFFR	0.649 ± 0.064
VVFQSLPCLSPP	0.758 ± 0.037
VVGAGDWRWGVW	0.78884 ± 0.00041
VVGAIVILRGLR	0.632 ± 0.018

Sequence	protein stability index
VVGALRFSDLFK	0.73 ± 0.042
VVGAVFFGCRLL	0.6 ± 0.15
VVGGVLRFLLLW	0.599 ± 0.013
VVGPVLTCAVRF	0.617 ± 0.076
VVHSRSTPAHPH	0.679 ± 0.12
VVLGESSGGVGV	0.643 ± 0.097
VVPSRCCQRLRK	0.716 ± 0.035
VVRLRCSVGWCS	0.575 ± 0.011
VVRQDQPDLKSS	0.691 ± 0.008
VVRRHKRVLMRF	0.659 ± 0.015
VVSDGARLVWGG	0.754 ± 0.12
VVSYFFSNDVLH	0.752 ± 0.073
VVSYVHTQPPLS	0.684 ± 0.073
VVTFSRSDIVLR	0.694 ± 0.076
VVVFPYCPLPLV	0.597 ± 0.076
VVVGVGGGVDMG	0.685 ± 0.0082
VVVSDFRSCNMS	0.736 ± 0.043
VVVVRCGWGGCG	0.592 ± 0.012
VWASVRRIFRVG	0.554 ± 0.0058
VWGVRVVCGFTV	0.533 ± 0.0038
VWLGGRECVVRG	0.597 ± 0.02
VWRGVWQVVVGG	0.5227 ± 0.0013
